# According to the supplement of paper PMC10065799, “High-throughput profiling of sequence recognition by tyrosine kinases and SH2 domains using bacterial peptide display” (eLife, 2023):
# Assays:
# c-Src SH2 = assay: SH2 binding enrichment of the phosphorylated peptide, bacterial display (enrichment ratio); higher = better substrate or ligand; peptides without Tyr show the background
# Grb2 SH2 = Grb2 SH2 (UniProt P62993); assay: as above
# SHP2-C SH2 = assay: as above
# Fer (mouse) = assay: phosphorylation enrichment, bacterial display (enrichment ratio); higher = better substrate or ligand; peptides without Tyr show the background
# EPHB2 = EPHB2 (UniProt P29323); assay: as above
# Fyn = Fyn (UniProt P06241); assay: as above
# MERTK = MERTK (UniProt Q12866); assay: as above
# c-Src = assay: as above
# c-Abl (mouse) = assay: as above
# FGFR3 = FGFR3 (UniProt P22607); assay: as above
# Jak2 = Jak2 (UniProt O60674); assay: as above
# Fes = Fes (UniProt P07332); assay: as above
# Hck = Hck (UniProt P08631); assay: as above
# EPHB1 = EPHB1 (UniProt P54762); assay: as above
# AncSZ = assay: as above
# FGFR1 = FGFR1 (UniProt P11362); assay: as above
# 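Wherever SH2 binding enrichment of the phosphorylated peptide, bacterial display is given: peptide library displayed on the E. coli surface as eCPX fusions, selected cells deep-sequenced, score is each peptide's frequency after selection divided by its frequency in the input.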
# 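Wherever phosphorylation enrichment, bacterial display is given: 11-residue human phosphosite peptides and single-mutation variants displayed on the E. coli surface, counted by deep sequencing, each peptide's frequency after selection divided by its frequency in the unselected input library; frequency after pTyr selection over input frequency; kinase dosed for 20-30% of maximal phosphorylation in three min.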
# Grb2 SH2, sequence (P62993 whole entry, looked up): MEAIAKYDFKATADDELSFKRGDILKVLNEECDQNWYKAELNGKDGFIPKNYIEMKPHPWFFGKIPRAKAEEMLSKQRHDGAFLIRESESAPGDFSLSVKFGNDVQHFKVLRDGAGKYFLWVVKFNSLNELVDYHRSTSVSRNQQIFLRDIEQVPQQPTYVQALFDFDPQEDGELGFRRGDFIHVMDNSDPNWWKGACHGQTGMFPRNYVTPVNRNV
# Fyn, sequence (P06241 whole entry, looked up): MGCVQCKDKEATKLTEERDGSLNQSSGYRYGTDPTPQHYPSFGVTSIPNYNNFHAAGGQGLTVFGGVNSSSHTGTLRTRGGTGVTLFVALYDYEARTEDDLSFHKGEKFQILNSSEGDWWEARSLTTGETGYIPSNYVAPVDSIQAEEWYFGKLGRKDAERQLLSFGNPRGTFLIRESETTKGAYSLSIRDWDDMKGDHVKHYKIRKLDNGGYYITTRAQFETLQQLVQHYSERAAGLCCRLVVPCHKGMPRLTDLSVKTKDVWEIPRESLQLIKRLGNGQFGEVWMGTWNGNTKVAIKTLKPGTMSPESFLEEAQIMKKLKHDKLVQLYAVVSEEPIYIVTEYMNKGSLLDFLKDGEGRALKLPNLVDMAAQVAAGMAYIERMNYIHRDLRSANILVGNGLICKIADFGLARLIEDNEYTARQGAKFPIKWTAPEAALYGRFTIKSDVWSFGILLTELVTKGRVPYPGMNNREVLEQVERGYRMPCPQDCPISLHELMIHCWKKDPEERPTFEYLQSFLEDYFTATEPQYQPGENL
# FGFR3, sequence (P22607 whole entry, looked up): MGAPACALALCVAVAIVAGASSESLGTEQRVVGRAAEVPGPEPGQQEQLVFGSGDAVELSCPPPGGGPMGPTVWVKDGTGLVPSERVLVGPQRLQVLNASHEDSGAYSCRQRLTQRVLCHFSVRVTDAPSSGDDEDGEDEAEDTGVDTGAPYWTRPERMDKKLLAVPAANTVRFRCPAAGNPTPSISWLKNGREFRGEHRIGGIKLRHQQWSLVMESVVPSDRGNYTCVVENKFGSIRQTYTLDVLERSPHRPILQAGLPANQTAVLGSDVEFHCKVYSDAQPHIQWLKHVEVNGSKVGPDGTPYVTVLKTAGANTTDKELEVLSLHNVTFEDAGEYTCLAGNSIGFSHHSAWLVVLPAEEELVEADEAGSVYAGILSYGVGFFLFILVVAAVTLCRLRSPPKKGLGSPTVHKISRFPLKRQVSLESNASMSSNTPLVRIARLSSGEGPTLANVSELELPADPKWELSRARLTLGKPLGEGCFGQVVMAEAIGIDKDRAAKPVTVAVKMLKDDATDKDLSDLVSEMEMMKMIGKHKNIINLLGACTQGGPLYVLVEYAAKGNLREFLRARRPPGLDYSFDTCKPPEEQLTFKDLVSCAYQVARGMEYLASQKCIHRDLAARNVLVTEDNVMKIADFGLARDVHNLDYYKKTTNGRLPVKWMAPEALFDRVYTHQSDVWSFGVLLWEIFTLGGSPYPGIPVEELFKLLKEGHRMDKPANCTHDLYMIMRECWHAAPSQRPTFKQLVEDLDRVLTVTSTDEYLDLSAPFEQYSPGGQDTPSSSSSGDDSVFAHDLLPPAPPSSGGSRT
# EPHB2, sequence (P29323 whole entry, looked up): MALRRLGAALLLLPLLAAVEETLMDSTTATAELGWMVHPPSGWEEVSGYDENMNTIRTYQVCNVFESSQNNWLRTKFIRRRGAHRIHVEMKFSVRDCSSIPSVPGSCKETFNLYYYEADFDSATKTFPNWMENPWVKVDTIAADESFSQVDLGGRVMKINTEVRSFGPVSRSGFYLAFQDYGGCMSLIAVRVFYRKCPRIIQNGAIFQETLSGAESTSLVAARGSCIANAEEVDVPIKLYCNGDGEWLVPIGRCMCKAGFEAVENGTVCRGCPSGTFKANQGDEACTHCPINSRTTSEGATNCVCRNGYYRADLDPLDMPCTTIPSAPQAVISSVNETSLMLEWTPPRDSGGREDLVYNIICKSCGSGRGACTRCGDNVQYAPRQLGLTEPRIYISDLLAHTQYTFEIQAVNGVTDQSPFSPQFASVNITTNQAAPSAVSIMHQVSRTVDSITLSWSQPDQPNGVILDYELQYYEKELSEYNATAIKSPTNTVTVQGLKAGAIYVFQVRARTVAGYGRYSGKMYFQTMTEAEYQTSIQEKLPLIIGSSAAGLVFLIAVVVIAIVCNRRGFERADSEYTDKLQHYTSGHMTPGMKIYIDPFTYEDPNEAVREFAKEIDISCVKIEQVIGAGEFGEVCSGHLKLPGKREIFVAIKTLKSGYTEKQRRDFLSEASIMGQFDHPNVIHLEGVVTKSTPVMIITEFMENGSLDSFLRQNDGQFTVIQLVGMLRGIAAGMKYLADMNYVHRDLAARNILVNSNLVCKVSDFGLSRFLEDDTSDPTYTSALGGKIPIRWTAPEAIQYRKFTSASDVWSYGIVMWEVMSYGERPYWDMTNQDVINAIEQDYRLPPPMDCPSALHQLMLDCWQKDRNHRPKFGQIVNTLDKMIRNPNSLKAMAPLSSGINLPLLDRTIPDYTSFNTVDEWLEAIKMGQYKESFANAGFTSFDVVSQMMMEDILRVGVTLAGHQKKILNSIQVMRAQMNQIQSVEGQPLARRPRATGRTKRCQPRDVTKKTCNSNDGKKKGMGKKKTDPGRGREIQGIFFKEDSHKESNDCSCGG
# Hck, sequence (P08631 whole entry, looked up): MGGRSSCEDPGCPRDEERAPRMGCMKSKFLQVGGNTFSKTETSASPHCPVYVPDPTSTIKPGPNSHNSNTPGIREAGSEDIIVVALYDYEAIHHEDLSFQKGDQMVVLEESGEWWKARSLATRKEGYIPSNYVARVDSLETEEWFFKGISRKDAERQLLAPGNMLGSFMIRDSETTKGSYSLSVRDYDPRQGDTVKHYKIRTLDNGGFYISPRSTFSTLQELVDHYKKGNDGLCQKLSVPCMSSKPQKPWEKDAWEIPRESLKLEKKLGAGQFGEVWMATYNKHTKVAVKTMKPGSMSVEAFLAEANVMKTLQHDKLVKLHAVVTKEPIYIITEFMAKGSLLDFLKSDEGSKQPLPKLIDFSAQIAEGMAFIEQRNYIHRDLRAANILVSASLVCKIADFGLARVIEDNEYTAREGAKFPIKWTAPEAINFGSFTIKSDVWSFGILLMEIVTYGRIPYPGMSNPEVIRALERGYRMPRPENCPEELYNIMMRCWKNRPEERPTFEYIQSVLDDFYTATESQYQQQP
# MERTK, sequence (Q12866 whole entry, looked up): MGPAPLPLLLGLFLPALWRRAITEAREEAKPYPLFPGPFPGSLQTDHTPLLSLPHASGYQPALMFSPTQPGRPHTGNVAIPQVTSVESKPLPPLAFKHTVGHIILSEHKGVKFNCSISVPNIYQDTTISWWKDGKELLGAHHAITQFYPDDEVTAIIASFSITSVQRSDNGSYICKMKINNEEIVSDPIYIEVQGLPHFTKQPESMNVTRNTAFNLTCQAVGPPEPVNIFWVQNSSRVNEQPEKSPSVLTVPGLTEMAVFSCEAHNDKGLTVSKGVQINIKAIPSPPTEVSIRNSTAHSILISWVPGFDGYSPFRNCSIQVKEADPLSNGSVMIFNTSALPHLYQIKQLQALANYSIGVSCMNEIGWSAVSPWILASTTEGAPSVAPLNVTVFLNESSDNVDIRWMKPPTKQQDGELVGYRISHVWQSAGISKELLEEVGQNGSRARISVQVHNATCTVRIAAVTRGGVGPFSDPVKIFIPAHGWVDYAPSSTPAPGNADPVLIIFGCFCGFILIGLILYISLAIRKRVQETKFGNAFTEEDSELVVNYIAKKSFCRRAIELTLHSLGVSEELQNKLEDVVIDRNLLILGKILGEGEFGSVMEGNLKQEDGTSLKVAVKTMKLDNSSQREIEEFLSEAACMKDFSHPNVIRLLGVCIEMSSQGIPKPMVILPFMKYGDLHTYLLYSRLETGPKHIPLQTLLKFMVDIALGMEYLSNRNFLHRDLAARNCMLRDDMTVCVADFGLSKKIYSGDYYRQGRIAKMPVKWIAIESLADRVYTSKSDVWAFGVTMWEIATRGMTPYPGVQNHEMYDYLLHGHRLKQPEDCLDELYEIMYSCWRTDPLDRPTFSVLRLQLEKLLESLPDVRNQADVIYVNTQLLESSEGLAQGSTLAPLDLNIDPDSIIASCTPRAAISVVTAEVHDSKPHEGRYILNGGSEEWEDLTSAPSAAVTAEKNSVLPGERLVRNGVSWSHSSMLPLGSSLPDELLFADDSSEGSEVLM
# Fes, sequence (P07332 whole entry, looked up): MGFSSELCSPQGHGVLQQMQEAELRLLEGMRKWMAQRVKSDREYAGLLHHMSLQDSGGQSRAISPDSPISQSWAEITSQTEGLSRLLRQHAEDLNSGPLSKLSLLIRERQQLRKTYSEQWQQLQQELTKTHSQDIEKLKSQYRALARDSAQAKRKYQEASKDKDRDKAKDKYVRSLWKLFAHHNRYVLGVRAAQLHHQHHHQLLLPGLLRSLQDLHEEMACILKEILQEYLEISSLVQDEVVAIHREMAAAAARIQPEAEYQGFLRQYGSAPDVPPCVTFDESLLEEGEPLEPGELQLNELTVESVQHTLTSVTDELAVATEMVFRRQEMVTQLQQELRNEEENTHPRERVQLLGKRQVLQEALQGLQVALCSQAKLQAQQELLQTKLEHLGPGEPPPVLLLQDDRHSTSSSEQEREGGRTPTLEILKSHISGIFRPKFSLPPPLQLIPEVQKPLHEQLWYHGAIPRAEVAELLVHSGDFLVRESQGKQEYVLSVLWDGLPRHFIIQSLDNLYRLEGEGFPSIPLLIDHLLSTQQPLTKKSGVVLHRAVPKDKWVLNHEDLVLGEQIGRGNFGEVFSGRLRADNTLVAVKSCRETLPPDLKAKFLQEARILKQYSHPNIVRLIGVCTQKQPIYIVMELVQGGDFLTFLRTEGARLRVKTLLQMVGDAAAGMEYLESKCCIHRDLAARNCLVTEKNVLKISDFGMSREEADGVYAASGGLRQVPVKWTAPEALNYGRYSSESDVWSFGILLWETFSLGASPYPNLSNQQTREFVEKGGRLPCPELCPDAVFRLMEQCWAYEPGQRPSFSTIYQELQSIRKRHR
Sequence,SH2 binding enrichment (c-Src SH2),SH2 binding enrichment (Grb2 SH2),SH2 binding enrichment (SHP2-C SH2),phosphorylation enrichment (Fer (mouse)),phosphorylation enrichment (EPHB2),phosphorylation enrichment (Fyn),phosphorylation enrichment (MERTK),phosphorylation enrichment (c-Src),phosphorylation enrichment (c-Abl (mouse)),phosphorylation enrichment (FGFR3),phosphorylation enrichment (Jak2),phosphorylation enrichment (Fes),phosphorylation enrichment (Hck),phosphorylation enrichment (EPHB1),phosphorylation enrichment (AncSZ),phosphorylation enrichment (FGFR1)
EQQNMYRLKVL [ABCC6_Y372],0.499,0.79,0.566,0.488,0.5,0.41,0.401,0.452,0.619,0.545,0.561,0.706,0.475,0.56,0.861,0.521
ERDYTYDELLN [EIF2S2_Y176_E177D],1.83,0.786,0.688,0.506,0.682,0.631,0.498,0.661,0.887,0.791,1.21,1.27,1.04,0.742,1.17,0.558
ESAAIYNPVIF [RHO_Y301_K296E_YF],0.493,0.848,0.678,17.2,0.579,8.03,4.16,6.99,1.28,0.675,0.707,1.25,9.56,0.452,1.03,0.673
ESSKAYERALS [TTC37_Y1074],0.468,0.787,0.571,0.418,0.624,0.412,0.417,0.409,0.618,0.476,0.594,0.816,0.444,0.413,0.77,0.423
ETKEDYEKILV [ANXA1_Y335_G333E],0.594,0.972,0.905,0.598,0.598,0.501,0.53,0.484,0.779,0.743,1.01,1.23,0.572,0.616,1.09,0.509
ETKKQYNSFTF [TMED3_Y85_D86N_YF],0.411,0.65,0.636,0.513,0.475,0.432,0.396,0.399,0.561,0.454,0.719,0.711,0.417,0.442,0.64,0.366
ETKTPYTVILI [SBDS_Y128_R126T],0.54,0.671,2.27,1.06,0.637,0.483,0.534,0.485,0.651,0.794,0.961,1.22,0.569,0.543,0.999,0.592
EVASVYESYQP [MAVS_Y92_Q93E],0.727,0.919,0.504,10.1,1.61,8.41,0.71,5.67,0.783,0.737,0.849,1.11,6.67,0.948,1.83,0.527
EVEPRYVVLFD [ERCC4_Y577_YF],3.48,0.802,1.33,0.568,3.06,0.547,4.21,0.667,0.777,0.973,1.11,1.04,0.505,3.47,1.18,0.999
EVEPRYVVLYD [ERCC4_Y577],8.72,0.894,1.84,0.547,3.44,0.664,5.22,0.683,0.91,0.986,1.07,1.13,0.646,3.5,1.22,1.36
EVLKNYNQQKD [GOLGA4_Y1551],0.32,0.608,0.669,0.552,0.505,0.443,0.439,0.388,0.717,0.702,0.969,1.07,0.452,0.504,0.949,0.565
EVVGGYSVHNA [MLH1_Y183_R182G],0.437,0.951,0.537,0.372,0.314,0.324,0.369,0.336,0.643,0.599,0.504,0.729,0.44,0.306,0.528,0.339
EWCSPYGLTPR [GRIN3B_Y601_R598C],0.535,0.644,0.629,1.2,0.569,1.76,1.01,3.91,0.734,0.613,0.778,1.02,1.04,0.556,0.815,0.474
EYKDAYTFAAD [BRDT_Y335_K336T],0.61,0.876,0.727,0.555,0.595,0.833,0.51,1.29,0.556,0.74,1.11,1.09,0.548,0.553,1.15,0.511
FADIAYNYRHR [PAH_Y166_G171R],0.542,0.866,0.773,0.436,0.44,0.27,0.398,0.429,0.511,0.435,0.533,0.687,0.341,0.391,0.624,0.427
FADIAYSYRHG [PAH_Y166_N167S],0.496,0.822,0.784,0.453,0.418,0.512,0.46,0.714,0.63,0.508,0.727,0.658,0.568,0.423,0.726,0.562
FAFQLYDLDPD [CHP2_Y123_R127P_YF],0.982,1.02,0.999,0.62,0.698,2.84,0.571,3.52,1.05,0.907,1.25,1.26,1.8,0.981,1.26,0.568
